B1: EPHA1: N414A (protein)
parent chain: MERRWPLGLGLVLLLCAPLPPGARAKEVTLMDTSKAQGELGWLLDPPKDGWSEQQQILNGTPLYMYQDCPMQGRRDTDHWLRSNWIYRGEEASRVHVELQFTVRDCKSFPGGAGPLGCKETFNLLYMESDQDVGIQLRRPLFQKVTTVAADQSFTIRDLVSGSVKLNVERCSLGRLTRRGLYLAFHNPGACVALVSVRVFYQRCPETLNGLAQFPDTLPGPAGLVEVAGTCLPHARASPRPSGAPRMHCSPDGEWLVPVGRCHCEPGYEEGGSGEACVACPSGSYRMDMDTPHCLTCPQQSTAESEGATICTCESGHYRAPGEGPQVACTGPPSAPRNLSFSASGTQLSLRWEPPADTGGRQDVRYSVRCSQCQGTAQDGGPCQPCGVGVHFSPGARGLTTPAVHVNGLEPYANYTFNVEAQNGVSGLGSSGHASTSVSISMGHAESLSGLSLRLVKKEPRQLELTWAGSRPRSPGANLTYELHVLNQDEERYQMVLEPRVLLTELQPDTTYIVRVRMLTPLGPGPFSPDHEFRTSPPVSRGLTGGEIVAVIFGLLLGAALLLGILVFRSRRAQRQRQQRQRDRATDVDREDKLWLKPYVDLQAYEDPAQGALDFTRELDPAWLMVDTVIGEGEFGEVYRGTLRLPSQDCKTVAIKTLKDTSPGGQWWNFLREATIMGQFSHPHILHLEGVVTKRKPIMIITEFMENGALDAFLREREDQLVPGQLVAMLQGIASGMNYLSNHNYVHRDLAARNILVNQNLCCKVSDFGLTRLLDDFDGTYETQGGKIPIRWTAPEAIAHRIFTTASDVWSFGIVMWEVLSFGDKPYGEMSNQEVMKSIEDGYRLPPPVDCPAPLYELMKNCWAYDRARRPHFQKLQAHLEQLLANPHSLRTIANFDPRMTLRLPSLSGSDGIPYRTVSEWLESIRMKRYILHFHSAGLDTMECVLELTAEDLTQMGITLPGHQKRILCSIQGFKD
B2: EPHA1: N414A-N478A (protein)
parent chain: MERRWPLGLGLVLLLCAPLPPGARAKEVTLMDTSKAQGELGWLLDPPKDGWSEQQQILNGTPLYMYQDCPMQGRRDTDHWLRSNWIYRGEEASRVHVELQFTVRDCKSFPGGAGPLGCKETFNLLYMESDQDVGIQLRRPLFQKVTTVAADQSFTIRDLVSGSVKLNVERCSLGRLTRRGLYLAFHNPGACVALVSVRVFYQRCPETLNGLAQFPDTLPGPAGLVEVAGTCLPHARASPRPSGAPRMHCSPDGEWLVPVGRCHCEPGYEEGGSGEACVACPSGSYRMDMDTPHCLTCPQQSTAESEGATICTCESGHYRAPGEGPQVACTGPPSAPRNLSFSASGTQLSLRWEPPADTGGRQDVRYSVRCSQCQGTAQDGGPCQPCGVGVHFSPGARGLTTPAVHVNGLEPYANYTFNVEAQNGVSGLGSSGHASTSVSISMGHAESLSGLSLRLVKKEPRQLELTWAGSRPRSPGANLTYELHVLNQDEERYQMVLEPRVLLTELQPDTTYIVRVRMLTPLGPGPFSPDHEFRTSPPVSRGLTGGEIVAVIFGLLLGAALLLGILVFRSRRAQRQRQQRQRDRATDVDREDKLWLKPYVDLQAYEDPAQGALDFTRELDPAWLMVDTVIGEGEFGEVYRGTLRLPSQDCKTVAIKTLKDTSPGGQWWNFLREATIMGQFSHPHILHLEGVVTKRKPIMIITEFMENGALDAFLREREDQLVPGQLVAMLQGIASGMNYLSNHNYVHRDLAARNILVNQNLCCKVSDFGLTRLLDDFDGTYETQGGKIPIRWTAPEAIAHRIFTTASDVWSFGIVMWEVLSFGDKPYGEMSNQEVMKSIEDGYRLPPPVDCPAPLYELMKNCWAYDRARRPHFQKLQAHLEQLLANPHSLRTIANFDPRMTLRLPSLSGSDGIPYRTVSEWLESIRMKRYILHFHSAGLDTMECVLELTAEDLTQMGITLPGHQKRILCSIQGFKD
B3: EPHA1: N478A (protein)
parent chain: MERRWPLGLGLVLLLCAPLPPGARAKEVTLMDTSKAQGELGWLLDPPKDGWSEQQQILNGTPLYMYQDCPMQGRRDTDHWLRSNWIYRGEEASRVHVELQFTVRDCKSFPGGAGPLGCKETFNLLYMESDQDVGIQLRRPLFQKVTTVAADQSFTIRDLVSGSVKLNVERCSLGRLTRRGLYLAFHNPGACVALVSVRVFYQRCPETLNGLAQFPDTLPGPAGLVEVAGTCLPHARASPRPSGAPRMHCSPDGEWLVPVGRCHCEPGYEEGGSGEACVACPSGSYRMDMDTPHCLTCPQQSTAESEGATICTCESGHYRAPGEGPQVACTGPPSAPRNLSFSASGTQLSLRWEPPADTGGRQDVRYSVRCSQCQGTAQDGGPCQPCGVGVHFSPGARGLTTPAVHVNGLEPYANYTFNVEAQNGVSGLGSSGHASTSVSISMGHAESLSGLSLRLVKKEPRQLELTWAGSRPRSPGANLTYELHVLNQDEERYQMVLEPRVLLTELQPDTTYIVRVRMLTPLGPGPFSPDHEFRTSPPVSRGLTGGEIVAVIFGLLLGAALLLGILVFRSRRAQRQRQQRQRDRATDVDREDKLWLKPYVDLQAYEDPAQGALDFTRELDPAWLMVDTVIGEGEFGEVYRGTLRLPSQDCKTVAIKTLKDTSPGGQWWNFLREATIMGQFSHPHILHLEGVVTKRKPIMIITEFMENGALDAFLREREDQLVPGQLVAMLQGIASGMNYLSNHNYVHRDLAARNILVNQNLCCKVSDFGLTRLLDDFDGTYETQGGKIPIRWTAPEAIAHRIFTTASDVWSFGIVMWEVLSFGDKPYGEMSNQEVMKSIEDGYRLPPPVDCPAPLYELMKNCWAYDRARRPHFQKLQAHLEQLLANPHSLRTIANFDPRMTLRLPSLSGSDGIPYRTVSEWLESIRMKRYILHFHSAGLDTMECVLELTAEDLTQMGITLPGHQKRILCSIQGFKD

Assay: cell surface biotinylation, streptavidin pull-down, EPHA1 immunoblot
Settings: glycan lost; control: wild type

localisation_or_trafficking, decreases:
B1
B2
B3
